Measured values reported in the Immune Epitope Database (IEDB).

Legend:
Assay in all cases: IEDB peptide-MHC binding, purified MHC/competitive/radioactivity; filed as Kd, often an IC50 or EC50 that approximates it; ≥ and ≤ were set here for values at or beyond the usual limits of such assays
HLA-A*03:01 = target: HLA-A*03:01
HLA-A*68:01 = target: HLA-A*68:01
HLA-A*11:01 = target: HLA-A*11:01
HLA-A*31:01 = target: HLA-A*31:01
HLA-A*33:01 = target: HLA-A*33:01
[1] = source organism: Vaccinia virus WR
[2] = source organism: Dengue virus 3 Martinique/1243/1999
[3] = source organism: SARS coronavirus Tor2
[4] = source organism: Lassa virus Josiah
[5] = source organism: Dengue virus 2 Jamaica/1409/1983
[6] = source organism: Mammarenavirus lassaense
[7] = source organism: Dengue virus 4 Philippines/H241/1956
[8] = source organism: Dengue virus 1 Brazil/97-11/1997
[9] = source organism: Mammarenavirus whitewaterense

In the case of SLVENNFFTK, the Kd (HLA-A*03:01; [1]) is reported as 229 nM, the Kd (HLA-A*68:01; [1]) is reported as 119 nM and the Kd (HLA-A*11:01; [1]) is reported as 9.71 nM. It also gave a Kd (HLA-A*31:01; [1]) of 388 nM and a Kd (HLA-A*33:01; [1]) of 704 nM.

NARMATMLEY gave a Kd (HLA-A*03:01; [1]) of 169 nM, a Kd (HLA-A*68:01; [1]) of 455 nM and a Kd (HLA-A*11:01; [1]) of 34.3 nM. For the same sequence, the Kd (HLA-A*31:01; [1]) was 734 nM and the Kd (HLA-A*33:01; [1]) was ≥ 69100 nM.

Work on RVIDLGCGR yielded a Kd (HLA-A*31:01; [2]) of 1.21 nM.

With VSTCFKLMLK the Kd (HLA-A*03:01; [3]) was 112 nM, the Kd (HLA-A*68:01; [3]) was 472 nM and the Kd (HLA-A*11:01; [3]) was 15.3 nM. The Kd (HLA-A*31:01; [3]) was 806 nM and the Kd (HLA-A*33:01; [3]) was 5700 nM.

For VAGTGVQFY, the Kd (HLA-A*03:01; [1]) was 7270 nM, the Kd (HLA-A*68:01; [1]) was ≥ 77700 nM and the Kd (HLA-A*11:01; [1]) was ≥ 26500 nM. For the same sequence, the Kd (HLA-A*31:01; [1]) was ≥ 53900 nM and the Kd (HLA-A*33:01; [1]) was ≥ 77700 nM.

PIIVAGFSGK showed a Kd (HLA-A*03:01; [1]) of 681 nM, a Kd (HLA-A*68:01; [1]) of 3760 nM and a Kd (HLA-A*11:01; [1]) of 761 nM. For the same sequence, the Kd (HLA-A*31:01; [1]) was ≥ 70000 nM and the Kd (HLA-A*33:01; [1]) was ≥ 45600 nM.

Work on KLVYIFEPEK yielded a Kd (HLA-A*03:01; [1]) of 53.7 nM, a Kd (HLA-A*68:01; [1]) of 1690 nM and a Kd (HLA-A*11:01; [1]) of 154 nM. For the same sequence, the Kd (HLA-A*31:01; [1]) was 9210 nM and the Kd (HLA-A*33:01; [1]) was ≥ 70000 nM.

STQQNKLVIR gave a Kd (HLA-A*03:01; [1]) of 17900 nM, a Kd (HLA-A*68:01; [1]) of 631 nM and a Kd (HLA-A*11:01; [1]) of 2240 nM. The Kd (HLA-A*31:01; [1]) was 154 nM and the Kd (HLA-A*33:01; [1]) was 4470 nM.

In the case of LVCFPSTQR, the Kd (HLA-A*03:01; [1]) is reported as 698 nM, the Kd (HLA-A*68:01; [1]) is reported as 10.8 nM and the Kd (HLA-A*11:01; [1]) is reported as 40.6 nM. The Kd (HLA-A*31:01; [1]) was 37.5 nM and the Kd (HLA-A*33:01; [1]) was 73 nM.

GSCVYNMMGK showed a Kd (HLA-A*03:01; [2]) of 104 nM and a Kd (HLA-A*11:01; [2]) of 25.8 nM.

For LITENKIWGR, the Kd (HLA-A*31:01; source organism: Dengue virus 1 Nauru/West Pac/1974) was ≥ 21100 nM.

Work on RTRDIYISRR yielded a Kd (HLA-A*03:01; [4]) of 393 nM, a Kd (HLA-A*68:01; [4]) of 1700 nM and a Kd (HLA-A*11:01; [4]) of 4290 nM. For the same sequence, the Kd (HLA-A*31:01; [4]) was 28.1 nM and the Kd (HLA-A*33:01; [4]) was 725 nM.

KFISDNKKEY was tested, and the Kd (HLA-A*03:01; [1]) was ≥ 70100 nM, the Kd (HLA-A*68:01; [1]) was ≥ 40700 nM and the Kd (HLA-A*11:01; [1]) was ≥ 69800 nM. For the same sequence, the Kd (HLA-A*31:01; [1]) was 427 nM and the Kd (HLA-A*33:01; [1]) was ≥ 70000 nM.

Sequence DIISRRDQR has a Kd (HLA-A*68:01; [5]) of 36.1 nM and a Kd (HLA-A*33:01; [5]) of 105 nM.

MLSIINKRKK gave a Kd (HLA-A*03:01; [2]) of 524 nM.

Sequence SVANGVPVH has a Kd (HLA-A*03:01; [6]) of 2270 nM, a Kd (HLA-A*68:01; [6]) of 8070 nM and a Kd (HLA-A*11:01; [6]) of 9780 nM. For the same sequence, the Kd (HLA-A*31:01; [6]) was ≥ 30300 nM and the Kd (HLA-A*33:01; [6]) was ≥ 77700 nM.

With LIWAYLSKK the Kd (HLA-A*03:01; [1]) was 21.4 nM, the Kd (HLA-A*68:01; [1]) was 214 nM and the Kd (HLA-A*11:01; [1]) was 101 nM. It also gave a Kd (HLA-A*31:01; [1]) of 931 nM and a Kd (HLA-A*33:01; [1]) of 4940 nM.

In the case of YLCGFIKQK, the Kd (HLA-A*03:01; [3]) is reported as 511 nM, the Kd (HLA-A*68:01; [3]) is reported as 6000 nM and the Kd (HLA-A*11:01; [3]) is reported as 1650 nM. The Kd (HLA-A*31:01; [3]) was 3430 nM and the Kd (HLA-A*33:01; [3]) was ≥ 46700 nM.

For RNKRPRLCTR, the Kd (HLA-A*31:01; source organism: Dengue virus 3 Sri Lanka/1266/2000) was 51.9 nM.

In the case of HQNSKKTTK, the Kd (HLA-A*03:01; [3]) is reported as 1100 nM, the Kd (HLA-A*68:01; [3]) is reported as ≥ 77700 nM and the Kd (HLA-A*11:01; [3]) is reported as 2080 nM. For the same sequence, the Kd (HLA-A*31:01; [3]) was 1980 nM and the Kd (HLA-A*33:01; [3]) was ≥ 77700 nM.

Sequence RLLACLCKHK has a Kd (HLA-A*03:01; [3]) of 0.221 nM, a Kd (HLA-A*68:01; [3]) of 8480 nM and a Kd (HLA-A*11:01; [3]) of 7.15 nM. For the same sequence, the Kd (HLA-A*31:01; [3]) was 25.2 nM and the Kd (HLA-A*33:01; [3]) was 4450 nM.

YVFSGDPLK gave a Kd (HLA-A*03:01; [7]) of 84.4 nM, a Kd (HLA-A*68:01; [7]) of 12.4 nM and a Kd (HLA-A*11:01; [7]) of 159 nM.

SQGAGWSLK was tested, and the Kd (HLA-A*11:01; [5]) was 77.7 nM.

QLVFNSISAR was tested, and the Kd (HLA-A*03:01; [1]) was 304 nM, the Kd (HLA-A*68:01; [1]) was 49.2 nM and the Kd (HLA-A*11:01; [1]) was 299 nM. The Kd (HLA-A*31:01; [1]) was 111 nM and the Kd (HLA-A*33:01; [1]) was 723 nM.

With KSAGFPFNK the Kd (HLA-A*03:01; [3]) was 8.65 nM, the Kd (HLA-A*68:01; [3]) was 69.5 nM and the Kd (HLA-A*11:01; [3]) was 3.88 nM. For the same sequence, the Kd (HLA-A*31:01; [3]) was 31.8 nM and the Kd (HLA-A*33:01; [3]) was 4890 nM.

GSQLAKRFSK was tested, and the Kd (HLA-A*11:01; [8]) was 108 nM.

For SFLRKIGDK, the Kd (HLA-A*03:01; [1]) was 7600 nM, the Kd (HLA-A*68:01; [1]) was ≥ 35000 nM and the Kd (HLA-A*11:01; [1]) was 3930 nM. The Kd (HLA-A*31:01; [1]) was 247 nM and the Kd (HLA-A*33:01; [1]) was ≥ 26200 nM.

In the case of QTPTKLMNK, the Kd (HLA-A*03:01; [1]) is reported as 210 nM, the Kd (HLA-A*68:01; [1]) is reported as 178 nM and the Kd (HLA-A*11:01; [1]) is reported as 306 nM. For the same sequence, the Kd (HLA-A*31:01; [1]) was ≥ 22700 nM and the Kd (HLA-A*33:01; [1]) was ≥ 77700 nM.

For TAVAKCNEKH, the Kd (HLA-A*03:01; [4]) was ≥ 70000 nM, the Kd (HLA-A*68:01; [4]) was ≥ 70100 nM and the Kd (HLA-A*11:01; [4]) was ≥ 69700 nM. The Kd (HLA-A*31:01; [4]) was ≥ 40100 nM and the Kd (HLA-A*33:01; [4]) was ≥ 61800 nM.

Work on LALGFFLRK yielded a Kd (HLA-A*03:01; [2]) of 3.33 nM and a Kd (HLA-A*11:01; [2]) of 9.58 nM.

MVSVSDFRDY was tested, and the Kd (HLA-A*03:01; [1]) was ≥ 70100 nM, the Kd (HLA-A*68:01; [1]) was 3960 nM and the Kd (HLA-A*11:01; [1]) was 17700 nM. For the same sequence, the Kd (HLA-A*31:01; [1]) was ≥ 70000 nM and the Kd (HLA-A*33:01; [1]) was ≥ 70000 nM.

With SLSPNDTTWI the Kd (HLA-A*03:01; [9]) was ≥ 34600 nM, the Kd (HLA-A*68:01; [9]) was ≥ 70100 nM and the Kd (HLA-A*11:01; [9]) was ≥ 69700 nM. For the same sequence, the Kd (HLA-A*31:01; [9]) was ≥ 32300 nM and the Kd (HLA-A*33:01; [9]) was ≥ 60700 nM.

KIMEIVSHLR was tested, and the Kd (HLA-A*03:01; [1]) was 73 nM, the Kd (HLA-A*68:01; [1]) was 2.42 nM and the Kd (HLA-A*11:01; [1]) was 3.61 nM. The Kd (HLA-A*31:01; [1]) was 0.559 nM and the Kd (HLA-A*33:01; [1]) was 63.5 nM.

With RVMANNVKKK the Kd (HLA-A*03:01; [1]) was 103 nM, the Kd (HLA-A*68:01; [1]) was 539 nM and the Kd (HLA-A*11:01; [1]) was 96 nM. For the same sequence, the Kd (HLA-A*31:01; [1]) was 760 nM and the Kd (HLA-A*33:01; [1]) was ≥ 28200 nM.

MLNILNRRR showed a Kd (HLA-A*31:01; [5]) of 8.37 nM.

For MSAAIKDNR, the Kd (HLA-A*68:01; [5]) was 14.4 nM and the Kd (HLA-A*31:01; [5]) was 8.82 nM.

Work on KVTEVKGYTK yielded a Kd (HLA-A*11:01; [8]) of 212 nM.

Work on RLQLSNGNR yielded a Kd (HLA-A*03:01; source organism: Homo sapiens) of 407 nM.

For KVVDLGCGR, the Kd (HLA-A*31:01; [5]) was 1.29 nM.

Sequence TLSLDYAWK has a Kd (HLA-A*03:01; [8]) of 181 nM.

For DYMPSMKRFR, the Kd (HLA-A*31:01; [5]) was 43.5 nM and the Kd (HLA-A*33:01; [5]) was 1.97 nM.

AVMDIISRK gave a Kd (HLA-A*03:01; [7]) of 4.94 nM and a Kd (HLA-A*11:01; [7]) of 107 nM.

Sequence CVTQVLMMR has a Kd (HLA-A*68:01; [5]) of 100 nM and a Kd (HLA-A*33:01; [5]) of 350 nM.

VSTGSQLAK was tested, and the Kd (HLA-A*03:01; [8]) was 127 nM and the Kd (HLA-A*11:01; [8]) was 332 nM.

MSAAIKDQK showed a Kd (HLA-A*68:01; [7]) of 50.9 nM and a Kd (HLA-A*11:01; [7]) of 480 nM.

Work on HMFAGHLKCK yielded a Kd (HLA-A*03:01; [7]) of 7.4 nM.

LMSAAIKDSK showed a Kd (HLA-A*03:01; [8]) of 66.7 nM.

In the case of MISYGGGWR, the Kd (HLA-A*68:01; [7]) is reported as 111 nM.

TLFVWYFWQK showed a Kd (HLA-A*03:01; [8]) of 24.6 nM and a Kd (HLA-A*11:01; [8]) of 54.8 nM.

Work on EVMRGKFGK yielded a Kd (HLA-A*68:01; [2]) of 55.7 nM and a Kd (HLA-A*11:01; [2]) of 850 nM.
